# Reference: patent US20230220021A1 (UNIVERSITY OF COPENHAGEN, published 2023)
# Numbering of substitutions follows the chain as printed. Numbers in names are those of the source. Like-named read-outs stand apart in the source and are kept apart here. Bridges are numbered along the chain shown (N, C = ends). Where no end group is shown, it is not given here. [ ]: non-standard residue; d: D form.
# T1: PSD-95-PDZ2 S173A
# T1 chain: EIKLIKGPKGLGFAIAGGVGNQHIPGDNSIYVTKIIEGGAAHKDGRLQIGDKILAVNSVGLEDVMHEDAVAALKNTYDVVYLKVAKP
# T2: PSD-95-PDZ2 T192A
# T2 chain: T1 chain with A14S, T33A
# T3: PSD-95-PDZ2 N180A
# T3 chain: T1 chain with A14S, N21A
# T4: PSD-95-PDZ2 E226A
# T4 chain: T1 chain with A14S, E67A
# T5: PSD-95-PDZ2 K193A
# T5 chain: T1 chain with A14S, K34A
# T6: PSD-95-PDZ2 K168A
# T6 chain: T1 chain with K9A, A14S
# T7: PSD-95-PDZ2 K233A
# T7 chain: T1 chain with A14S, K74A
# B1: cyclic nNOS β-hairpin peptide (WT), Cyclo-(THLETTFTGDGTPKTIRVTQpG(Qα)) (peptide)
# peptide: cyclo(THLETTFTGDGTPKTIRVTQ[dP]GQ)
# SMILES: CC[C@H](C)[C@@H]1NC(=O)[C@H]([C@@H](C)O)NC(=O)[C@H](CCCCN)NC(=O)[C@@H]2CCCN2C(=O)[C@H]([C@@H](C)O)NC(=O)CNC(=O)[C@H](CC(=O)O)NC(=O)CNC(=O)[C@H]([C@@H](C)O)NC(=O)[C@H](Cc2ccccc2)NC(=O)[C@H]([C@@H](C)O)NC(=O)[C@H]([C@@H](C)O)NC(=O)[C@H](CCC(=O)O)NC(=O)[C@H](CC(C)C)NC(=O)[C@H](Cc2c[nH]cn2)NC(=O)[C@H]([C@@H](C)O)NC(=O)[C@H](CCC(N)=O)NC(=O)CNC(=O)[C@H]2CCCN2C(=O)[C@H](CCC(N)=O)NC(=O)[C@H]([C@@H](C)O)NC(=O)[C@H](C(C)C)NC(=O)[C@H](CCCNC(=N)N)NC1=O
# notes: also called Cyclic WT; Wild type mimic
# B2: cyclic nNOS β-hairpin peptide T112W G115P (peptide)
# peptide: cyclo(THLETTFWGDPTPKTIRVTQ[dP]GQ)
# SMILES: CC[C@H](C)[C@@H]1NC(=O)[C@H]([C@@H](C)O)NC(=O)[C@H](CCCCN)NC(=O)[C@@H]2CCCN2C(=O)[C@H]([C@@H](C)O)NC(=O)[C@@H]2CCCN2C(=O)[C@H](CC(=O)O)NC(=O)CNC(=O)[C@H](Cc2c[nH]c3ccccc23)NC(=O)[C@H](Cc2ccccc2)NC(=O)[C@H]([C@@H](C)O)NC(=O)[C@H]([C@@H](C)O)NC(=O)[C@H](CCC(=O)O)NC(=O)[C@H](CC(C)C)NC(=O)[C@H](Cc2c[nH]cn2)NC(=O)[C@H]([C@@H](C)O)NC(=O)[C@H](CCC(N)=O)NC(=O)CNC(=O)[C@H]2CCCN2C(=O)[C@H](CCC(N)=O)NC(=O)[C@H]([C@@H](C)O)NC(=O)[C@H](C(C)C)NC(=O)[C@H](CCCNC(=N)N)NC1=O
# B3: cyclic nNOS β-hairpin peptide G115P T116E (peptide)
# peptide: cyclo(THLETTFTGDPEPKTIRVTQ[dP]GQ)
# SMILES: CC[C@H](C)[C@@H]1NC(=O)[C@H]([C@@H](C)O)NC(=O)[C@H](CCCCN)NC(=O)[C@@H]2CCCN2C(=O)[C@H](CCC(=O)O)NC(=O)[C@@H]2CCCN2C(=O)[C@H](CC(=O)O)NC(=O)CNC(=O)[C@H]([C@@H](C)O)NC(=O)[C@H](Cc2ccccc2)NC(=O)[C@H]([C@@H](C)O)NC(=O)[C@H]([C@@H](C)O)NC(=O)[C@H](CCC(=O)O)NC(=O)[C@H](CC(C)C)NC(=O)[C@H](Cc2c[nH]cn2)NC(=O)[C@H]([C@@H](C)O)NC(=O)[C@H](CCC(N)=O)NC(=O)CNC(=O)[C@H]2CCCN2C(=O)[C@H](CCC(N)=O)NC(=O)[C@H]([C@@H](C)O)NC(=O)[C@H](C(C)C)NC(=O)[C@H](CCCNC(=N)N)NC1=O
# B4: cyclic nNOS β-hairpin peptide ΔT116 (peptide)
# peptide: cyclo(THLETTFTGDGPKTIRVTQ[dP]GQ)
# SMILES: CC[C@H](C)[C@@H]1NC(=O)[C@H]([C@@H](C)O)NC(=O)[C@H](CCCCN)NC(=O)[C@@H]2CCCN2C(=O)CNC(=O)[C@H](CC(=O)O)NC(=O)CNC(=O)[C@H]([C@@H](C)O)NC(=O)[C@H](Cc2ccccc2)NC(=O)[C@H]([C@@H](C)O)NC(=O)[C@H]([C@@H](C)O)NC(=O)[C@H](CCC(=O)O)NC(=O)[C@H](CC(C)C)NC(=O)[C@H](Cc2c[nH]cn2)NC(=O)[C@H]([C@@H](C)O)NC(=O)[C@H](CCC(N)=O)NC(=O)CNC(=O)[C@H]2CCCN2C(=O)[C@H](CCC(N)=O)NC(=O)[C@H]([C@@H](C)O)NC(=O)[C@H](C(C)C)NC(=O)[C@H](CCCNC(=N)N)NC1=O
# B5: TAMRA labelled C-terminal GluN2B peptide (KLSSIESDV-COOH) (peptide)
# peptide: KLSSIESDV-OH
# modifications: also: TAMRA label (site not given here)
# notes: also called C-terminal GluN2B TAMRA probe; GluN2B canonical peptide
# Assays:
# [1] = molecular target: T8, (7× His)-PSD-95-PDZ2 wild type (UniProt P78352 160-246); assay: FP competition
# T8 construct: domain: PDZ2; recombinant from E. coli; also called PSD-95-PDZ2 WT; not shown: 7x His tag
# Target sequence in this assay (P78352 160-246): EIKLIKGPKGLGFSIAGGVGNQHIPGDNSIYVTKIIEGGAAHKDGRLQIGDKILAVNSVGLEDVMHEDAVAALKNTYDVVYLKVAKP
# [2] = molecular target: T8, (7× His)-PSD-95-PDZ2 wild type; assay: FP competition; remark: listed apart in the source
# Target sequence in this assay (P78352 160-246): as above
# Method: (§1) Fluorescence polarization (FP). FP assays were performed in a 384-well plate format. Fluorescence polarization was measured using a Safire 2 plate reader. The instrument Z-factor was optimized for each assay. The G-factor was calibrated to an initial milli polarization value of 20. […] Every measurement was performed in NaPI 50 mM, 50 mM NaCl and 1% BSA at pH 7.2, 25° C. […] The curves were done in triplicates. Then, the polarization was fitted into a one-site binding model using Prism software 8.0 (GraphPad), from which the Kd can be measured. […] The mili polarization (mP) values were plotted as a function of peptide concentration and fitted to a sigmoidal dose-response curve using Prism software 8.0 (GraphPad). The Kᵢ values were calculated according to Nikolovska-Coleska Z. et al.⁴⁰⁻⁴¹
# [3] = molecular target: T8, (7× His)-PSD-95-PDZ2 wild type; assay: FP competition; remark: listed apart in the source
# Target sequence in this assay (P78352 160-246): as above
# Method: as §1
# [4] = molecular target: T8, (7× His)-PSD-95-PDZ2 wild type; assay: FP competition; remark: listed apart in the source
# Target sequence in this assay (P78352 160-246): as above
# Method: as §1
# Data was collected in triplicates and is presented as mean of Kᵢ values±SEM.
# [5] = molecular target: T8, (7× His)-PSD-95-PDZ2 wild type; assay: ITC, 25 °C
# Target sequence in this assay (P78352 160-246): as above
# Method: Isothermal titration calorimetry (ITC). […] Proteins were dialyzed against this buffer using Amicon® Ultra-15 centrifugal filter units, with a MWCO 3000 Da.
# This assay was performed on an ITC200. The instrument differential power (DP) was set to 10 and the syringe rotating speed to 600 RPM. The assay setup consisted of introducing the protein inside the cell and the peptide (titrant) on the syringe. Calorimetry was performed at 25° C. Each analysis was performed in triplicates. Furthermore, several runs of peptide into buffer were performed in order to remove injection residual heat. Runs were analyzed with Origin 7.0 software (OriginLab).
# [6] = molecular target: T8, (7× His)-PSD-95-PDZ2 wild type; assay: FP competition; remark: listed apart in the source
# Target sequence in this assay (P78352 160-246): as above
# Method: as §1
# [7] = molecular target: T8, (7× His)-PSD-95-PDZ2 wild type; assay: FP competition; remark: listed apart in the source
# Method: as §1
# [8] = molecular target: T8, (7× His)-PSD-95-PDZ2 wild type; assay: FP competition; remark: listed apart in the source
# Method: Fluorescence polarization (FP). FP assays were performed in a 384-well plate format. Fluorescence polarization was measured using a Safire 2 plate reader. The instrument Z-factor was optimized for each assay. The G-factor was calibrated to an initial milli polarization value of 20. […] Every measurement was performed in NaPI 50 mM, 50 mM NaCl and 1% BSA at pH 7.2, 25° C. […] The curves were done in triplicates. […] The mili polarization (mP) values were plotted as a function of peptide concentration and fitted to a sigmoidal dose-response curve using Prism software 8.0 (GraphPad).
# Data was collected in triplicates and is presented as mean of Kᵢ values±SEM
# [9] = molecular target: T8, (7× His)-PSD-95-PDZ2 wild type; assay: FP saturation
# PSD-95-PDZ2 V229A = molecular target: T9, PSD-95-PDZ2 V229A (UniProt P78352 160-246); assay: FP saturation
# T9 construct: domain: PDZ2; not shown: 7x His tag
# PSD-95-PDZ2 K165A = molecular target: T10, PSD-95-PDZ2 K165A (UniProt P78352 160-246); assay: FP saturation
# T10 construct: domain: PDZ2; also called K165 mutation; not shown: 7x His tag
# PSD-95-PDZ2 S173A = molecular target: T1, PSD-95-PDZ2 S173A; assay: FP saturation, TAMRA probe titrated with the protein
# Method: as §1
# (§2) Obtained binding affinities (Kd values) for each PSD-95-PDZ2 Ala mutants were normalized to PSD-95-PDZ2 WT values to obtain the fold change for each mutation (FIG. 8).
# PSD-95-PDZ2 T192A = molecular target: T2, PSD-95-PDZ2 T192A; assay: as above
# Method: as §1, §2
# PSD-95-PDZ2 N180A = molecular target: T3, PSD-95-PDZ2 N180A; assay: as above
# Method: as §1, §2
# PSD-95-PDZ2 E226A = molecular target: T4, PSD-95-PDZ2 E226A; assay: as above
# Method: as §1, §2
# PSD-95-PDZ2 K193A = molecular target: T5, PSD-95-PDZ2 K193A; assay: as above
# Method: as §1, §2
# PSD-95-PDZ2 K168A = molecular target: T6, PSD-95-PDZ2 K168A; assay: as above
# Method: as §1, §2
# PSD-95-PDZ2 K233A = molecular target: T7, PSD-95-PDZ2 K233A; assay: as above
# Method: as §1, §2
# PSD-95-PDZ2 H225A = molecular target: T11, PSD-95-PDZ2 H225A (UniProt P78352 160-246); assay: FP saturation
# T11 construct: domain: PDZ2; not shown: 7x His tag
binder,measurement,setting,value
THLETTFTGDGTPKXIRVTQPGQ (cyclic; D-Pro; allo-Thr at 119) [cyclic nNOS β-hairpin peptide AlloT119],Ki,[1],8990 nM
THLETTFTGDGTPKTIRVXQPGQ (cyclic; D-Pro; N-methyl Thr 123) [cyclic nNOS β-hairpin peptide N-Me-T123],Ki,[2],580 nM
same,fold improved affinity,[3],2 fold
TXLETTFTGDGTPKTIRVTQPGQ (cyclic; D-Pro; His(3-Me) at 106) [cyclic nNOS β-hairpin peptide His(3-Me)],Ki,[4],400 nM
B1,-ΔS*T,[5],0.35 kcal/mol
same,Kd,[5],2150 nM
same,ΔH,[5],-7.74 kcal/mol
B2,Ki,[6],950 nM
"THLETTFTGDGTPKTIRVTQ[dP]GD-NH2 (lactam N-23) [Cyclo-(105THLETTFTGDGTPKTIRVTQ124pG(Dγ)), Asp side-chain lactam]",Ki,[7],4290 nM
"THLETTFTGDGTPKTIRVTQ[dP]GE-NH2 (lactam N-23) [Cyclo-(105THLETTFTGDGTPKTIRVTQ124pG(Eγ)), Glu side-chain lactam]",Ki,[7],3600 nM
B3,Ki,[6],22500 nM
"cyclo(CTHLETTFTGDGTPKTIRVTQ[dP]G) (also called NCL peptide) [Cyclo-(C105THLETTFTGDGTPKTIRVTQ124pG), NCL]",Ki,[7],1010 nM
TXLETTFTGDGTPKTIRVTQPGQ (cyclic; D-Pro; His(1-Me) at 106) [cyclic nNOS β-hairpin peptide His(1-Me)],Ki,[4],2900 nM
THLETTFXGDGTPKTIRVTQPGQ (cyclic; D-Pro; phospho-Thr 112) [cyclic nNOS β-hairpin peptide pT112],Ki,[8],2680 nM
THLETTFTGDGTPXTIRVTQPGQ (cyclic; D-Pro; N-methyl Lys 118) [cyclic nNOS β-hairpin peptide N-Me-K118],Ki,[2],480 nM
same,fold improved affinity,[3],2 fold
XHLETTFTGDGTPKTIRVTQPGQ (cyclic; D-Pro; N-methyl Thr 105) [cyclic nNOS β-hairpin peptide N-Me-T105],Ki,[2],4800 nM
same,fold decrease in affinity,[3],5 fold
"XHLETTFTGDGTPKTIRVTQPGC (cyclic by thioether (N-terminal acetyl to Cys); D-Pro, also called thioether bridged analogue) [Cyclo-(Ac105…124pGC), Thioether]",Ki,[7],4800 nM
"cyclo(C(TAMRA maleimide)THLETTFTGDGTPKTIRVTQ[dP]G) (also called cyclic nNOS TAMRA probe) [cyclic nNOS β-hairpin TAMRA probe, cyclo-(CTHLETTFTGDGTPKTIRVTQpG) labelled with TAMRA]",Kd,[9],1000 nM
same,fold loss in affinity vs PDZ2 WT,PSD-95-PDZ2 V229A,6 fold
same,fold loss in affinity vs PDZ2 WT,PSD-95-PDZ2 K165A,4 fold
XHLETTFTGDGTPKTIRVTQPGQ (cyclic; D-Pro; phospho-Thr 105) [cyclic nNOS β-hairpin peptide pT105],Ki,[8],2930 nM
B4,Ki,[1],1430 nM
THLETXFTGDGTPKTIRVTQPGQ (cyclic; D-Pro; allo-Thr at 110) [cyclic nNOS β-hairpin peptide AlloT110],Ki,[1],2290 nM
B5,binding result,PSD-95-PDZ2 S173A,binds
same,binding result,PSD-95-PDZ2 T192A,binds
same,binding result,PSD-95-PDZ2 N180A,binds
same,binding result,PSD-95-PDZ2 E226A,binds
same,binding result,PSD-95-PDZ2 K193A,binds
same,binding result,PSD-95-PDZ2 K168A,binds
same,binding result,PSD-95-PDZ2 K233A,binds
same,Kd,[9],4000 nM
same,fold loss in affinity vs PDZ2 WT,PSD-95-PDZ2 V229A,2 fold
same,fold decrease in affinity vs PDZ2 WT,PSD-95-PDZ2 H225A,5 fold
same,fold loss in affinity vs PDZ2 WT,PSD-95-PDZ2 K165A,5 fold
XHLETTFTGDGTPKTIRVTQPGQ (cyclic; D-Pro; allo-Thr at 105) [cyclic nNOS β-hairpin peptide AlloT105],Ki,[1],2650 nM
THLETTFTGDGTPKTIRVXQPGQ (cyclic; D-Pro; phospho-Thr 123) [cyclic nNOS β-hairpin peptide pT123],Ki,[8],1150 nM
THLETTFTGDGXPKTIRVTQPGQ (cyclic; D-Pro; phospho-Thr 116) [cyclic nNOS β-hairpin peptide pT116],Ki,[8],210 nM
